{"source": "paper PMC6823310", "about": "“XszenFHal, a novel tryptophan 5-halogenase from Xenorhabdus szentirmaii” (AMB Express, 2019)", "proteins": {"B1": {"name": "XszenFHal (FHal16) (Xenorhabdus szentirmaii DSM 16338) (protein)", "chain": "MINSVLIVGGGTAGWMTAAYLSKAFDKNINITVVESKEVKKIGVGEATFSTVRHYFDYLGLNESEWLPECSGSYKLGIRFENWDGQGNHFYHPFERWEVVKGFPISEWWLSKKLKDQRFDYDTFLTPHLCEAKRSPRRLDGSLFAQSIDKSLGQSTLAEQRAQYPYAYHFDADGVASFLKRYAMNRGVKHIEDDVTHVEIDTNGNIGYLEAKIYGKLRADLYIDCTGFKGLLINKALNEPFISFSDVLKNNRAVALRVPRENENDIEPYTTARTMSNGWRWTIPLYKRNGYGYVYCNKYQSPEEAEMELRKSIPYENAECVANHIRMRIGRSNRSWVKNCVAIGLSSAFVEPLESTGIFFIQHGIEQLVRFFPRSSGNELLIEEYNTRVNRVVDGVKEFLLLHFSLAQRNDTLYWKEWKNVELPKELLKKITLAQDHLLDKETIYPFYHGFEEYSWNTMILGLCSGSLNNKPALSLMTSDEADEMLLQHYMKAENMVNNLPTCYEYLKHIHDLKNKN", "notes": "N-terminal His tag (modified pET22b(+)), expressed in E. coli BL21-CodonPlus (DE3)-RIPL"}}, "substrate": "N[C@@H](Cc1c[nH]c2ccccc12)C(=O)O", "assay": "initial rates of chlorination by UHPLC-UV, Michaelis-Menten fit", "type": "biochemical, Xenorhabdus szentirmaii", "details": "20 mM NaCl, 0.05 mM NADH, 0.01 mM FAD, flavin reductase K12Fre 0.1 μM, phosphate pH 7.5, 25 °C", "data": [{"protein": "B1", "values": [{"measurement": "Km", "value": 58.22, "unit": "µM"}, {"measurement": "kcat", "value": 0.074, "unit": "s⁻¹"}]}]}
